Measured values reported in patent publication US20180155451A1 (published 2018).
Substitutions are numbered along the chain they refer to.

T1: FcγRIIa R (FcγRIIa, allotype R: Arg at position 131) extracellular domain with C-terminal His tag (human, UniProt P12318 34-217)
T1 construct: extracellular domain; also called FcgRIIa R; 2aR; not shown: His tag at the C terminus
T1 sequence (looked up): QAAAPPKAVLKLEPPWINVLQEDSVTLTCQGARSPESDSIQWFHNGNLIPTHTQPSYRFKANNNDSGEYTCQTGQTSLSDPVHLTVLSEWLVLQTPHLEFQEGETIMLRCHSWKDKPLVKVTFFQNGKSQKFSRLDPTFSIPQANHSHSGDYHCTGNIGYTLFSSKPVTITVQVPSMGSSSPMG

T2: FcγRIIa H (human, UniProt P12318 34-217)
T2 construct: extracellular domain; also called FcgRIIa H; FcγRIIa type H; not shown: His tag attached to the C terminus
T2 sequence (looked up): T1 sequence (looked up) with R134H

T3: FcγRIIb extracellular domain with C-terminal His tag (human, UniProt P31994 43-217)
T3 construct: extracellular domain; also called FcgRIIb; 2b; not shown: His tag at the C terminus
T3 sequence (looked up): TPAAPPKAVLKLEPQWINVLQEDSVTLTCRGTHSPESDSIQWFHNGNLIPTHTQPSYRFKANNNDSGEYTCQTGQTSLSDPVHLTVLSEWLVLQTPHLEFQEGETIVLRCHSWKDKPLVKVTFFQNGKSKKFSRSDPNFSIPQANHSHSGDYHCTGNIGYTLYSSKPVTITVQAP

T4: FcγRIIb (human, UniProt P31994 43-217)
T4 construct: extracellular domain; also called FcgRIIb; 2b; not shown: His tag attached to the C terminus
T4 sequence (looked up): T3 sequence (looked up)

B1: GpH7-A5/GpH7-B3 variant L235_14T/GpL16-k0 (antibody, human IgG1, kappa)
heavy 1: not shown
heavy 2: not shown
light: DIVMTQSPLSLPVTPGEPASISCQASESLVHSNRNTYLHWYLQKPGQSPQLLIYKVSNRFSGVPDRFSGSGSGTDFTLKISRVEAEDVGVYYCSQNTHVPPTFGQGTKVEIERTVAAPSVFIFPPSDEQLKSGTASVVCLLNNFYPREAKVQWKVDNALQSGNSQESVTEQDSKDSTYSLSSTLTLSKADYEKHKVYACEVTHQGLSSPVTKSFNRGEC
notes: He Ab: alteration in the GpH7-B3 H chain only; also called He Ab
B2: GpH7-A5/GpH7-B3 variant L235_19Q/GpL16-k0 (antibody, human IgG1, kappa)
heavy 1: not shown
heavy 2: not shown
light: B1 light
notes: as for B1
B3: GpH7-A5/GpH7-B3 variant L235_18N/GpL16-k0 (antibody, human IgG1, kappa)
heavy 1: not shown
heavy 2: not shown
light: B1 light
notes: as for B1
B4: GpH7-A5/GpH7-B3 variant L235_16H/GpL16-k0 (antibody, human IgG1, kappa)
heavy 1: not shown
heavy 2: not shown
light: B1 light
notes: as for B1
B5: GpH7-A5/GpH7-B3 variant P238_02A/GpL16-k0 (antibody, human IgG1, kappa)
heavy 1: not shown
heavy 2: not shown
light: B1 light
notes: as for B1
B6: GpH7-A5/GpH7-B3 variant P238_01G/GpL16-k0 (antibody, human IgG1, kappa)
heavy 1: not shown
heavy 2: not shown
light: B1 light
notes: as for B1
B7: GpH7-A5/GpH7-B3 variant G236_02A/GpL16-k0 (antibody, human IgG1, kappa)
heavy 1: not shown
heavy 2: not shown
light: B1 light
notes: Heterodimerized IgG1, mutation in the GpH7-B3 chain only; also called He Ab
B8: GpH7-A5/GpH7-B3 variant G236_05P/GpL16-k0 (antibody, human IgG1, kappa)
heavy 1: not shown
heavy 2: not shown
light: B1 light
notes: as for B7
B9: GpH7-A5/GpH7-B3 variant G236_12R/GpL16-k0 (antibody, human IgG1, kappa)
heavy 1: not shown
heavy 2: not shown
light: B1 light
notes: as for B7
B10: GpH7-A5/GpH7-B3 variant D265_03V/GpL16-k0 (antibody, human IgG1, kappa)
heavy 1: not shown
heavy 2: not shown
light: B1 light
notes: as for B7
B11: GpH7-A5/GpH7-B3 variant G236_19Q/GpL16-k0 (antibody, human IgG1, kappa)
heavy 1: not shown
heavy 2: not shown
light: B1 light
notes: as for B7
B12: GpH7-A5/GpH7-B3 variant G236_06M/GpL16-k0 (antibody, human IgG1, kappa)
heavy 1: not shown
heavy 2: not shown
light: B1 light
notes: as for B7
B13: GpH7-A5/GpH7-B3 variant G236_16H/GpL16-k0 (antibody, human IgG1, kappa)
heavy 1: not shown
heavy 2: not shown
light: B1 light
notes: as for B7
B14: GpH7-A5/GpH7-B3 variant L234_13S/GpL16-k0 (antibody, human IgG1, kappa)
heavy 1: not shown
heavy 2: not shown
light: B1 light
notes: as for B7
B15: GpH7-A5/GpH7-B3 variant G236_03V/GpL16-k0 (antibody, human IgG1, kappa)
heavy 1: not shown
heavy 2: not shown
light: B1 light
notes: as for B7
B16: GpH7-A5/GpH7-B3 variant G236_20W/GpL16-k0 (antibody, human IgG1, kappa)
heavy 1: not shown
heavy 2: not shown
light: B1 light
notes: as for B7
B17: GpH7-A5/GpH7-B3 variant L234_01G/GpL16-k0 (antibody, human IgG1, kappa)
heavy 1: not shown
heavy 2: not shown
light: B1 light
notes: as for B7
B18: GpH7-A5/GpH7-B3 variant L234_04F/GpL16-k0 (antibody, human IgG1, kappa)
heavy 1: not shown
heavy 2: not shown
light: B1 light
notes: as for B7
B19: GpH7-A5/GpH7-B3 variant G236_07I/GpL16-k0 (antibody, human IgG1, kappa)
heavy 1: not shown
heavy 2: not shown
light: B1 light
notes: as for B7
B20: GpH7-A5/GpH7-B3 variant G236_15Y/GpL16-k0 (antibody, human IgG1, kappa)
heavy 1: not shown
heavy 2: not shown
light: B1 light
notes: as for B7
B21: GpH7-A5/GpH7-B3 variant L235_12R/GpL16-k0 (antibody, human IgG1, kappa)
heavy 1: not shown
heavy 2: not shown
light: B1 light
notes: as for B7
B22: GpH7-A5/GpH7-B3 variant G236_08L/GpL16-k0 (antibody, human IgG1, kappa)
heavy 1: not shown
heavy 2: not shown
light: B1 light
notes: as for B7
B23: GpH7-A5/GpH7-B3 variant G236_13S/GpL16-k0 (antibody, human IgG1, kappa)
heavy 1: not shown
heavy 2: not shown
light: B1 light
notes: as for B7
B24: GpH7-A5/GpH7-B3 variant G236_14T/GpL16-k0 (antibody, human IgG1, kappa)
heavy 1: not shown
heavy 2: not shown
light: B1 light
notes: as for B7
B25: GpH7-A5/GpH7-B3 variant L234_14T/GpL16-k0 (antibody, human IgG1, kappa)
heavy 1: not shown
heavy 2: not shown
light: B1 light
notes: as for B7
B26: GpH7-A5/GpH7-B3 variant L234_12R/GpL16-k0 (antibody, human IgG1, kappa)
heavy 1: not shown
heavy 2: not shown
light: B1 light
notes: as for B7
B27: GpH7-A5/GpH7-B3 variant L234_05P/GpL16-k0 (antibody, human IgG1, kappa)
heavy 1: not shown
heavy 2: not shown
light: B1 light
notes: as for B7
B28: GpH7-A5/GpH7-B3 variant L234_11K/GpL16-k0 (antibody, human IgG1, kappa)
heavy 1: not shown
heavy 2: not shown
light: B1 light
notes: as for B7
B29: GpH7-A5/GpH7-B3 variant L234_15Y/GpL16-k0 (antibody, human IgG1, kappa)
heavy 1: not shown
heavy 2: not shown
light: B1 light
notes: as for B7
B30: GpH7-A5/GpH7-B3 variant L234_02A/GpL16-k0 (antibody, human IgG1, kappa)
heavy 1: not shown
heavy 2: not shown
light: B1 light
notes: as for B7
B31: GpH7-A5/GpH7-B3 variant D265_02A/GpL16-k0 (antibody, human IgG1, kappa)
heavy 1: not shown
heavy 2: not shown
light: B1 light
notes: as for B7
B32: GpH7-A5/GpH7-B3 variant G236_04F/GpL16-k0 (antibody, human IgG1, kappa)
heavy 1: not shown
heavy 2: not shown
light: B1 light
notes: as for B7

Biological target: T1, FcγRIIa R (FcγRIIa, allotype R: Arg at …)
Experiment: ratio He/Con_2aR : He/Con_2b (FcgRIIa R over FcgRIIb), SPR Biacore
Procedure: The heterodimerized antibodies He Abs in which one of the H chains was introduced with an alteration were assayed for their binding activities to each activating FcγR and inhibitory FcγR according to the method described in Example 4. […] The activating FcγRs in FIGS. 26, 27, 28, and 29 are FcγRIa, FcγRIIa (R), FcγRIIa (H), and FcγRIIIa, respectively.
Analysis of interaction between objective antibody and the FcγR was carried out using Biacore T100 (GE Healthcare). HBS-EP+ (GE Healthcare) was used as the running buffer, and the measurement temperature was set to 25° C. Chips produced by immobilizing the antigen peptide by the amine coupling method to a Series S Sencor Chip CM5 (GE Healthcare), or alternatively, chips produced by allowing preliminarily biotinylated antigen peptides to interact with and immobilize onto a Series S Sensor Chip SA (certified) (GE Healthcare) were used. Antibodies of interest were captured onto an antigen peptide-immobilized chip, and allowed to interact to each FcγR diluted with running buffer. To regenerate and repeatedly use the chip, the antibodies captured on the chip were washed off by reacting 10 mM glycine-HCl, pH 1.5.

| He_2aR/2b (IIaR/IIb) | Binder |
| --- | --- |
| 1.3 | B1 |
| 1.32 | B2 |
| 1.21 | B3 |
| 1.23 | B4 |
| 1.31 | B5 |
| 1.34 | B6 |

Biological target: T2, FcγRIIa H
Experiment: ratio of He/Con_2aH to He/Con_2b (relative SPR binding to FcγRIIa H over FcγRIIb)

| He_2aH/2b (IIaH/IIb) | Binder |
| --- | --- |
| 1.44 | B7 |
| 3.34 | B8 |
| 5.04 | B9 |
| 1.42 | B10 |
| 1.91 | B11 |
| 1.88 | B12 |
| 3.51 | B13 |
| 1.36 | B14 |
| 3.39 | B15 |
| 2.52 | B16 |
| 1.49 | B17 |
| 1.2 | B18 |
| 3.72 | B19 |
| 3.45 | B20 |
| 3.16 | B21 |
| 2.83 | B22 |
| 1.39 | B23 |
| 1.79 | B24 |
| 1.25 | B25 |
| 2.53 | B26 |
| 1.28 | B27 |
| 2.52 | B28 |
| 1.25 | B29 |
| 1.25 | B30 |
| 1.58 | B31 |
| 3 | B32 |

Biological target: T1, FcγRIIa R (FcγRIIa, allotype R: Arg at …)
Experiment: SPR Biacore, antibody captured, FcgR analyte; vs HeCon Ab GpH7-A5/GpH7-B3/GpL16-k0 = 100

| He/Con_2aR [control = 100] | Binder |
| --- | --- |
| 60.7 | B1 |
| 56.2 | B2 |
| 66.5 | B3 |
| 94.8 | B4 |
| 75.1 | B5 |
| 75 | B6 |

Biological target: T3, FcγRIIb extracellular domain with …
Experiment: as above

| He/Con_2b [control = 100] | Binder |
| --- | --- |
| 46.8 | B1 |
| 42.6 | B2 |
| 54.9 | B3 |
| 76.9 | B4 |
| 57.4 | B5 |
| 56 | B6 |

Biological target: T2, FcγRIIa H
Experiment: SPR (Biacore), antibody captured, FcγR as analyte; binding relative to GpH7-A5/GpH7-B3/GpL16-k0 = 100

| He/Con_2aH [control = 100] | Binder |
| --- | --- |
| 139 | B7 |
| 63.5 | B8 |
| 34.2 | B9 |
| 4.6 | B10 |
| 89.1 | B11 |
| 85.7 | B12 |
| 98.2 | B13 |
| 80.4 | B14 |
| 119 | B15 |
| 147 | B16 |
| 75.6 | B17 |
| 120 | B18 |
| 115 | B19 |
| 136 | B20 |
| 30.3 | B21 |
| 75.8 | B22 |
| 135 | B23 |
| 103 | B24 |
| 78.1 | B25 |
| 47.7 | B26 |
| 93.5 | B27 |
| 40.8 | B28 |
| 120 | B29 |
| 81 | B30 |
| 31.3 | B31 |
| 118 | B32 |

Biological target: T4, FcγRIIb
Experiment: as above

| He/Con_2b [control = 100] | Binder |
| --- | --- |
| 96.5 | B7 |
| 19 | B8 |
| 6.8 | B9 |
| 3.2 | B10 |
| 46.6 | B11 |
| 45.5 | B12 |
| 27.9 | B13 |
| 59.3 | B14 |
| 35.3 | B15 |
| 58.2 | B16 |
| 50.7 | B17 |
| 99.8 | B18 |
| 31 | B19 |
| 39.5 | B20 |
| 26.8 | B22 |
| 96.7 | B23 |
| 57.8 | B24 |
| 62.5 | B25 |
| 18.9 | B26 |
| 72.9 | B27 |
| 16.2 | B28 |
| 96.3 | B29 |
| 64.9 | B30 |
| 19.9 | B31 |
| 39.3 | B32 |
